The target in the test is T1, Pox5 (Candida tropicalis, UniProt P08790).
T1 construct: made in house; host or cells: E. coli Rosetta II BL21, pET26b; crude cell lysate (10 ug per reaction)
The format is biochemical, Candida strain ATCC20336. The method, then: To express an enzyme, a colony from each transformation of Rosetta cells was used to start a 5 ml overnight culture of LB containing the antibiotics kanamycin (to select for pET26b) and chloramphenicol (to select for a second plasmid found in Rosetta II cells that mediates improved translation of eukaryotic proteins expressed in E. coli) grown at 37° C. The next morning, the overnight culture was used to seed 30 ml of LB containing kanamycin and chloramphenicol to an OD600 reading of 0.1. The 30 ml cultures were grown at 37° C. for 2 hours and then placed on ice for 10 minutes. To induce expression, isopropyl-beta-D-thiogalactopyranoside (IPTG) was added to the culture to a final concentration of 0.1 mM. In some cases induction was performed using Novagen Overnight Express Autoinduction System 1 (CAT#71300-3). The cells were then shaken at 15° C. overnight to express the acyl CoA oxidase.
To test the activity of the acyl CoA oxidase, cells from the overnight induction were pelleted at 1046×g at 4° C. in 50 ml conical tubes. The cell pellets were resuspended in 1 ml of 50 mM KPO4, pH 7.6, 50 μM FAD buffer and then transferred to a 2 ml centrifuge tube. A Misonix Sonicator 3000 (QSonica, Newtown, Conn.) was used to lyse the cells, which were sonicated at a power setting of 2 for 2 pulses of 20 seconds each. The lysates were placed on ice for 30 seconds in between each pulse. To obtain a supernatant, cell debris was pelleted at […] for 10 mins in a 4° C. microcentrifuge. The supernatant was transferred to a 1.5 ml centrifuge tube and Bradford assays (Thermoscientific) were performed on cell lysates according to manufacturer's specifications to determine protein concentration in preparation for the acyl-CoA oxidase assays. A Beckman Coulter DTX-800 Multimode Detector spectrophotometer was used for the assays. The spectrophotometer was set to read for 5 minutes at 500 nm, 30° C. Each reaction was 200 μl in volume and contained 10 μg of cell lysate in 50 mM KPO4, pH 7.6, […] BSA, 0.05% Triton X-100, 250 μM fatty acyl-coA substrate, 50 μM FAD, 10 U horseradish peroxidase, 25 mM p-hydroxybenzoic acid and 1 mM 4-aminoantipyrine. Fatty acyl-CoA substrates covered a range from hexanoyl CoA (six carbon chain length) to oleoyl CoA (eighteen carbon chain length).
Pox4 and Pox5 from Candida strain ATCC20336 were cloned into pET26b for expression in E. coli and assayed for acyl CoA oxidase activity in vitro. The activity profiles of the genetically modified Pox4 and Pox5 were compared to the activity profile of the wild type enzymes. To alter their substrate activity profile, site directed mutagenesis was performed on several locations in Pox4 and Pox5. Complementary primers encoding the point mutation(s) were used to amplify the coding sequences of Pox4 or Pox5 generating two to four PCR products that were then “stitched” together to regenerate the entire coding region using overlap extension PCR (FIG. 22). […] PCR was performed using oligonucleotides A and B to produce a product with overlap to a PCR product generated using oligonucleotides C and D. The A-B product was used as a primer for the C-D product, and vice versa, for overlap extension. Several mutagenic primer pairs, for example, like the B-C primer pair, were used to produce mutations at different locations that were “stitched” together, i.e. A-B, C-D, E-F, etc. to generate an intact, full length coding region. […]

Setting [1] is: wild type, expressed in E. coli.

The results in this text go back to patent US9765346B2, “Biological methods for preparing a fatty dicarboxylic acid” (Verdezyne, Inc., priority 2011, dated 2017).

Turning to “Pox5: native acyl-CoA oxidase isozyme of Candida strain ATCC20336”, where the note is “FIG. 21, wild type”, the “activity on C6 and C8 substrates” value is given as “low activity”; the “activity on substrates below C10” value is “decrease in activity”. In addition, under “native isozyme”, the substrate specificity result is recorded as “narrow substrate specificity”. Also, under setting [1], the “activity on a C6 substrate” value was “not very active” and the “substrates on which active” value is given as “C8 all the way to C18:1”.
